The results in this text go back to patent publication US20190111080A1 (PRECIGEN, published 2019).

The test has as its target T1, recombinant EGFRvIII/Fc protein (UniProt P00533 25-645).
T1 construct: Staining reagent for flow cytometry; not shown: Fc part not described
The test can be described thus: flow cytometry, CAR T cells stained with recombinant EGFRvIII/Fc, day 1. The protocol: Briefly, EGFRvIII-specific CAR vectors were introduced into via electroporation, using a Sleeping Beauty-based transposon system to mediate genomic integration of the transposons. On day 0, PBMC were mixed with CAR transposon and SB transposase and electroporated. The following day (day1) cells count and viability were measured followed by flow cytometry to quantify CAR expression. CAR-T cells were stimulated by co-culture with either γ-irradiated) or mitomycin C treated AaPCs. The AaPC cells used were K562 cell line expressing EGFRvIII antigen. EGFRvIII-CAR-T cells were expanded ex vivo by once weekly stimulation with the AaPCs. Cultures were maintained in media supplemented with IL-2 (and/or IL-21. EGFRvIII-specific CAR expression was measured using recombinant EGFRvIII/Fc protein staining as detected by multi-parameter flow cytometry.
In general terms: Flow cytometry measures light scatter and fluorescence of single cells or particles in a stream.

B1: EGFRvIII CAR (MR1-1 scFv · CD8alpha 4x hinge&TM · 4-1BB · CD3ζ) (receptor)
chain: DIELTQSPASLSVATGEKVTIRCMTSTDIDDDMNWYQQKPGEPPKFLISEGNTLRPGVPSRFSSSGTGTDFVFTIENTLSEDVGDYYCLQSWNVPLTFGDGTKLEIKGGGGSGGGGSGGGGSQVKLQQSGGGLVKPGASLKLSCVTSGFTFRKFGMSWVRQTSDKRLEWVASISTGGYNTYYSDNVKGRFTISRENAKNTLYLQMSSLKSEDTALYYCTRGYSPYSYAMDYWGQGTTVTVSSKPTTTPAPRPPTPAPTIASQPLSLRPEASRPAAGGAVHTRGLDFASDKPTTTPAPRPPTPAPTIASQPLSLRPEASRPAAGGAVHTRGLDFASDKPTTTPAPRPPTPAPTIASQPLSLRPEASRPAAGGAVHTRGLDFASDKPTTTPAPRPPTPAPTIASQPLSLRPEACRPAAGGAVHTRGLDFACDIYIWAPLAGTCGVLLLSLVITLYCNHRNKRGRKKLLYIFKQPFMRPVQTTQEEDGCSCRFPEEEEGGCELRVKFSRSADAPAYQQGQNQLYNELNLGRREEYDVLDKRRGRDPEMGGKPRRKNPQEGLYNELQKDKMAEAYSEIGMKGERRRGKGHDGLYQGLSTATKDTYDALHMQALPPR
notes: Expressed on human T cells; also called MR1-1 CAR CD8-4×
For B1, the binding result was “binds”.

B2: EGFRvIII CAR (MR1-1 scFv · CD8alpha 3x hinge&TM · 4-1BB · CD3ζ) (receptor)
chain: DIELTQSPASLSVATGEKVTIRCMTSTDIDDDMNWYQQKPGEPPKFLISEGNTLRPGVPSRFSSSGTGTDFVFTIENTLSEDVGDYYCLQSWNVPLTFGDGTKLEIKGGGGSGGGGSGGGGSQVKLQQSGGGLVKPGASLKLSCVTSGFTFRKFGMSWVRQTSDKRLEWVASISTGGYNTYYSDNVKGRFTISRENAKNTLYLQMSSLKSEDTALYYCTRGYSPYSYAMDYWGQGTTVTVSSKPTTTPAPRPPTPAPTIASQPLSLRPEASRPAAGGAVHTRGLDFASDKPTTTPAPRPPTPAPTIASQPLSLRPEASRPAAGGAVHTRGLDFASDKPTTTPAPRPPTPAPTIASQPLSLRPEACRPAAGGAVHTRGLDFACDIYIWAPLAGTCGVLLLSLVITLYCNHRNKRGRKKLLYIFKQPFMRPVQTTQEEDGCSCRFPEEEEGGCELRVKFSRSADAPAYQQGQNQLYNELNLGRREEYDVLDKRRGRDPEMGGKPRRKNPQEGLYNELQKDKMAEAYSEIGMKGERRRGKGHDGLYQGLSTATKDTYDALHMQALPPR
notes: Expressed on human T cells; also called MR1-1 CAR CD8-3×
Turning to B2, the binding result is given as “binds”.
